The values below come from US20260001928A1 (CORTERIA PHARMACEUTICALS, priority 2022, published 2026).

One experiment has as its target T1, CRF1R receptor (UniProt P34998 24-415, limits assumed).
T1 sequence (looked up): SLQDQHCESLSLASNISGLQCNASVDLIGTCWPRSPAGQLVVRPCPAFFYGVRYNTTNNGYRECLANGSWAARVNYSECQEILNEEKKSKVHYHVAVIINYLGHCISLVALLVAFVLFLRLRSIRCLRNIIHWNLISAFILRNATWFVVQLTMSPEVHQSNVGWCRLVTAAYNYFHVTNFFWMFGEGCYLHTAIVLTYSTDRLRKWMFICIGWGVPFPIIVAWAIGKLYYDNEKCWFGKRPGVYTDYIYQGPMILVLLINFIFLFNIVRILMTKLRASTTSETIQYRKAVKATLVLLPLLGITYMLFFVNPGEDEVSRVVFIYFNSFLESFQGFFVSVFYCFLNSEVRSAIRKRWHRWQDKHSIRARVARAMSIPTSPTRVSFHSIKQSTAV
In words: cell-based or functional assay.

In experiment [1] the target is human corticotropin-releasing factor 2a (CRF2a receptor) (human), Q13324. The experiment can be described thus: cell-based or functional assay.
Sequence of human corticotropin-releasing factor 2a (CRF2a receptor) (human), Q13324 (Q13324 20-411): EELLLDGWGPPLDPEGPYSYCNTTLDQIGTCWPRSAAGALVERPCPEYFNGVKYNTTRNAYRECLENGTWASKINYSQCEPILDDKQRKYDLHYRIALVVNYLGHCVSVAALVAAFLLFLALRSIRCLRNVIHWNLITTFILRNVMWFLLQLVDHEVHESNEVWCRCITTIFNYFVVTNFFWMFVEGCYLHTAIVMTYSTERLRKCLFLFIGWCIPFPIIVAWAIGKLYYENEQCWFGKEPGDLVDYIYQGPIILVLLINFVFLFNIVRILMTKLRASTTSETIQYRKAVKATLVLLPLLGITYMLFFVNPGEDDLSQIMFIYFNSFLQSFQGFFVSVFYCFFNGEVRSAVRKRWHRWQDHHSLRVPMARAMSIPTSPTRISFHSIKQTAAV

In general, EC50 refers to the concentration at which the effect is half-maximal.

*1 amine or outer side, *2 acyl side, *3 side chain or, on linkers, in order; H or OH if unused. Where no end group is shown, it is not given here. Side-chain parts run from the residue outwards. [ ]: non-standard residue; d: D form. The star is where a group is joined. C18 diacid = O=C(O)CCCCCCCCCCCCCCCCC(=O)*; C16 diacid = O=C(O)CCCCCCCCCCCCCCC(=O)*; γGlu = O=C(O)[C@H](CCC(=O)[*:2])N[*:1]; NMeI = CC[C@H](C)[C@H](NC)C(=O)O; αMeL = CC(C)C[C@](C)(N)C(=O)O; AEEA = NCCOCCOCC(=O)O; Aib = CC(C)(N)C(=O)O

B1: SEQ ID NO 111 (peptide)
peptide: Ac-IVLSLD[dV]PIK[αMeL]K([AEEA-AEEA-γGlu-C18 diacid])KILLEQEKQKKQREQAETNVQILAQV-NH2
SMILES: CC[C@H](C)[C@H](NC(C)=O)C(=O)N[C@H](C(=O)N[C@@H](CC(C)C)C(=O)N[C@@H](CO)C(=O)N[C@@H](CC(C)C)C(=O)N[C@@H](CC(=O)O)C(=O)N[C@@H](C(=O)N1CCC[C@H]1C(=O)N[C@H](C(=O)N[C@@H](CCCCN)C(=O)N[C@@](C)(CC(C)C)C(=O)N[C@@H](CCCCNC(=O)COCCOCCNC(=O)COCCOCCNC(=O)CC[C@H](NC(=O)CCCCCCCCCCCCCCCCC(=O)O)C(=O)O)C(=O)N[C@@H](CCCCN)C(=O)N[C@H](C(=O)N[C@@H](CC(C)C)C(=O)N[C@@H](CC(C)C)C(=O)N[C@@H](CCC(=O)O)C(=O)N[C@@H](CCC(N)=O)C(=O)N[C@@H](CCC(=O)O)C(=O)N[C@@H](CCCCN)C(=O)N[C@@H](CCC(N)=O)C(=O)N[C@@H](CCCCN)C(=O)N[C@@H](CCCCN)C(=O)N[C@@H](CCC(N)=O)C(=O)N[C@@H](CCCNC(=N)N)C(=O)N[C@@H](CCC(=O)O)C(=O)N[C@@H](CCC(N)=O)C(=O)N[C@@H](C)C(=O)N[C@@H](CCC(=O)O)C(=O)N[C@H](C(=O)N[C@@H](CC(N)=O)C(=O)N[C@H](C(=O)N[C@@H](CCC(N)=O)C(=O)N[C@H](C(=O)N[C@@H](CC(C)C)C(=O)N[C@@H](C)C(=O)N[C@@H](CCC(N)=O)C(=O)N[C@H](C(N)=O)C(C)C)[C@@H](C)CC)C(C)C)[C@@H](C)O)[C@@H](C)CC)[C@@H](C)CC)C(C)C)C(C)C
For the molecule B1, in the experiment with CRF1R receptor, the “Emax (% I)” value is -3%. Further, the EC50 [nM] (cAMP) in experiment [1] stood at 2.58 nM.

B2: SEQ ID NO 103 (peptide)
peptide: Ac-IVLSLD[dV]PIKLK([AEEA-AEEA-γGlu-C18 diacid])KILLEQEKQKKQREQAETNVQILAQV-NH2
SMILES: CC[C@H](C)[C@H](NC(C)=O)C(=O)N[C@H](C(=O)N[C@@H](CC(C)C)C(=O)N[C@@H](CO)C(=O)N[C@@H](CC(C)C)C(=O)N[C@@H](CC(=O)O)C(=O)N[C@@H](C(=O)N1CCC[C@H]1C(=O)N[C@H](C(=O)N[C@@H](CCCCN)C(=O)N[C@@H](CC(C)C)C(=O)N[C@@H](CCCCNC(=O)COCCOCCNC(=O)COCCOCCNC(=O)CC[C@H](NC(=O)CCCCCCCCCCCCCCCCC(=O)O)C(=O)O)C(=O)N[C@@H](CCCCN)C(=O)N[C@H](C(=O)N[C@@H](CC(C)C)C(=O)N[C@@H](CC(C)C)C(=O)N[C@@H](CCC(=O)O)C(=O)N[C@@H](CCC(N)=O)C(=O)N[C@@H](CCC(=O)O)C(=O)N[C@@H](CCCCN)C(=O)N[C@@H](CCC(N)=O)C(=O)N[C@@H](CCCCN)C(=O)N[C@@H](CCCCN)C(=O)N[C@@H](CCC(N)=O)C(=O)N[C@@H](CCCNC(=N)N)C(=O)N[C@@H](CCC(=O)O)C(=O)N[C@@H](CCC(N)=O)C(=O)N[C@@H](C)C(=O)N[C@@H](CCC(=O)O)C(=O)N[C@H](C(=O)N[C@@H](CC(N)=O)C(=O)N[C@H](C(=O)N[C@@H](CCC(N)=O)C(=O)N[C@H](C(=O)N[C@@H](CC(C)C)C(=O)N[C@@H](C)C(=O)N[C@@H](CCC(N)=O)C(=O)N[C@H](C(N)=O)C(C)C)[C@@H](C)CC)C(C)C)[C@@H](C)O)[C@@H](C)CC)[C@@H](C)CC)C(C)C)C(C)C
Regarding B2, the “Emax (% I)” value with CRF1R receptor stood at 3%. In experiment [1], this molecule displayed an EC50 [nM] (cAMP) of 3.09 nM.

B3: SEQ ID NO 48 (peptide)
peptide: Ac-IVLSLD[dV]PIKLK([γGlu-C16 diacid])KILLEQEKQKKQREQAETNVQILAQV-NH2
SMILES: CC[C@H](C)[C@H](NC(C)=O)C(=O)N[C@H](C(=O)N[C@@H](CC(C)C)C(=O)N[C@@H](CO)C(=O)N[C@@H](CC(C)C)C(=O)N[C@@H](CC(=O)O)C(=O)N[C@@H](C(=O)N1CCC[C@H]1C(=O)N[C@H](C(=O)N[C@@H](CCCCN)C(=O)N[C@@H](CC(C)C)C(=O)N[C@@H](CCCCNC(=O)CC[C@H](NC(=O)CCCCCCCCCCCCCCC(=O)O)C(=O)O)C(=O)N[C@@H](CCCCN)C(=O)N[C@H](C(=O)N[C@@H](CC(C)C)C(=O)N[C@@H](CC(C)C)C(=O)N[C@@H](CCC(=O)O)C(=O)N[C@@H](CCC(N)=O)C(=O)N[C@@H](CCC(=O)O)C(=O)N[C@@H](CCCCN)C(=O)N[C@@H](CCC(N)=O)C(=O)N[C@@H](CCCCN)C(=O)N[C@@H](CCCCN)C(=O)N[C@@H](CCC(N)=O)C(=O)N[C@@H](CCCNC(=N)N)C(=O)N[C@@H](CCC(=O)O)C(=O)N[C@@H](CCC(N)=O)C(=O)N[C@@H](C)C(=O)N[C@@H](CCC(=O)O)C(=O)N[C@H](C(=O)N[C@@H](CC(N)=O)C(=O)N[C@H](C(=O)N[C@@H](CCC(N)=O)C(=O)N[C@H](C(=O)N[C@@H](CC(C)C)C(=O)N[C@@H](C)C(=O)N[C@@H](CCC(N)=O)C(=O)N[C@H](C(N)=O)C(C)C)[C@@H](C)CC)C(C)C)[C@@H](C)O)[C@@H](C)CC)[C@@H](C)CC)C(C)C)C(C)C
On to B3, for which the “Emax (% I)” value in the experiment with CRF1R receptor came to 4%. This molecule displayed an EC50 [nM] (cAMP) in experiment [1] of 1.35 nM.

B4: SEQ ID NO 27 (peptide)
peptide: Ac-IVLSLD[dV]PIKLK([AEEA-AEEA-γGlu-γGlu-C18 diacid])Q[Aib]LLKQERQKKQREQAEKNVQILEQV-NH2
SMILES: CC[C@H](C)[C@H](NC(C)=O)C(=O)N[C@H](C(=O)N[C@@H](CC(C)C)C(=O)N[C@@H](CO)C(=O)N[C@@H](CC(C)C)C(=O)N[C@@H](CC(=O)O)C(=O)N[C@@H](C(=O)N1CCC[C@H]1C(=O)N[C@H](C(=O)N[C@@H](CCCCN)C(=O)N[C@@H](CC(C)C)C(=O)N[C@@H](CCCCNC(=O)COCCOCCNC(=O)COCCOCCNC(=O)CC[C@H](NC(=O)CC[C@H](NC(=O)CCCCCCCCCCCCCCCCC(=O)O)C(=O)O)C(=O)O)C(=O)N[C@@H](CCC(N)=O)C(=O)NC(C)(C)C(=O)N[C@@H](CC(C)C)C(=O)N[C@@H](CC(C)C)C(=O)N[C@@H](CCCCN)C(=O)N[C@@H](CCC(N)=O)C(=O)N[C@@H](CCC(=O)O)C(=O)N[C@@H](CCCNC(=N)N)C(=O)N[C@@H](CCC(N)=O)C(=O)N[C@@H](CCCCN)C(=O)N[C@@H](CCCCN)C(=O)N[C@@H](CCC(N)=O)C(=O)N[C@@H](CCCNC(=N)N)C(=O)N[C@@H](CCC(=O)O)C(=O)N[C@@H](CCC(N)=O)C(=O)N[C@@H](C)C(=O)N[C@@H](CCC(=O)O)C(=O)N[C@@H](CCCCN)C(=O)N[C@@H](CC(N)=O)C(=O)N[C@H](C(=O)N[C@@H](CCC(N)=O)C(=O)N[C@H](C(=O)N[C@@H](CC(C)C)C(=O)N[C@@H](CCC(=O)O)C(=O)N[C@@H](CCC(N)=O)C(=O)N[C@H](C(N)=O)C(C)C)[C@@H](C)CC)C(C)C)[C@@H](C)CC)C(C)C)C(C)C
For B4, in the experiment with CRF1R receptor, the “EC50” value was above 250 nM and the “Emax (% I)” value turned out to be 7%. Moreover, the EC50 [nM] (cAMP) in experiment [1] was 16.9 nM.

B5: SEQ ID NO 28 (peptide)
peptide: [NMeI]VLSLD[dV]PIKLK([AEEA-AEEA-γGlu-γGlu-C18 diacid])Q[Aib]LLKQERQKKQREQAEKNVQILEQV-NH2
modifications: N-terminus assumed
SMILES: CC[C@H](C)[C@H](NC)C(=O)N[C@H](C(=O)N[C@@H](CC(C)C)C(=O)N[C@@H](CO)C(=O)N[C@@H](CC(C)C)C(=O)N[C@@H](CC(=O)O)C(=O)N[C@@H](C(=O)N1CCC[C@H]1C(=O)N[C@H](C(=O)N[C@@H](CCCCN)C(=O)N[C@@H](CC(C)C)C(=O)N[C@@H](CCCCNC(=O)COCCOCCNC(=O)COCCOCCNC(=O)CC[C@H](NC(=O)CC[C@H](NC(=O)CCCCCCCCCCCCCCCCC(=O)O)C(=O)O)C(=O)O)C(=O)N[C@@H](CCC(N)=O)C(=O)NC(C)(C)C(=O)N[C@@H](CC(C)C)C(=O)N[C@@H](CC(C)C)C(=O)N[C@@H](CCCCN)C(=O)N[C@@H](CCC(N)=O)C(=O)N[C@@H](CCC(=O)O)C(=O)N[C@@H](CCCNC(=N)N)C(=O)N[C@@H](CCC(N)=O)C(=O)N[C@@H](CCCCN)C(=O)N[C@@H](CCCCN)C(=O)N[C@@H](CCC(N)=O)C(=O)N[C@@H](CCCNC(=N)N)C(=O)N[C@@H](CCC(=O)O)C(=O)N[C@@H](CCC(N)=O)C(=O)N[C@@H](C)C(=O)N[C@@H](CCC(=O)O)C(=O)N[C@@H](CCCCN)C(=O)N[C@@H](CC(N)=O)C(=O)N[C@H](C(=O)N[C@@H](CCC(N)=O)C(=O)N[C@H](C(=O)N[C@@H](CC(C)C)C(=O)N[C@@H](CCC(=O)O)C(=O)N[C@@H](CCC(N)=O)C(=O)N[C@H](C(N)=O)C(C)C)[C@@H](C)CC)C(C)C)[C@@H](C)CC)C(C)C)C(C)C
Regarding B5, in the experiment with CRF1R receptor, the “EC50” value was above 250 nM and the “Emax (% I)” value was found to be 6%. Also, the EC50 [nM] (cAMP) in experiment [1] worked out at 2.2 nM.
